Assay results: paper PMC5550728

Target: mouse Cav1.3 α1 subunit expressed in HEK cells (mouse) (UniProt Q99246)
Sequence (Q99246 whole entry): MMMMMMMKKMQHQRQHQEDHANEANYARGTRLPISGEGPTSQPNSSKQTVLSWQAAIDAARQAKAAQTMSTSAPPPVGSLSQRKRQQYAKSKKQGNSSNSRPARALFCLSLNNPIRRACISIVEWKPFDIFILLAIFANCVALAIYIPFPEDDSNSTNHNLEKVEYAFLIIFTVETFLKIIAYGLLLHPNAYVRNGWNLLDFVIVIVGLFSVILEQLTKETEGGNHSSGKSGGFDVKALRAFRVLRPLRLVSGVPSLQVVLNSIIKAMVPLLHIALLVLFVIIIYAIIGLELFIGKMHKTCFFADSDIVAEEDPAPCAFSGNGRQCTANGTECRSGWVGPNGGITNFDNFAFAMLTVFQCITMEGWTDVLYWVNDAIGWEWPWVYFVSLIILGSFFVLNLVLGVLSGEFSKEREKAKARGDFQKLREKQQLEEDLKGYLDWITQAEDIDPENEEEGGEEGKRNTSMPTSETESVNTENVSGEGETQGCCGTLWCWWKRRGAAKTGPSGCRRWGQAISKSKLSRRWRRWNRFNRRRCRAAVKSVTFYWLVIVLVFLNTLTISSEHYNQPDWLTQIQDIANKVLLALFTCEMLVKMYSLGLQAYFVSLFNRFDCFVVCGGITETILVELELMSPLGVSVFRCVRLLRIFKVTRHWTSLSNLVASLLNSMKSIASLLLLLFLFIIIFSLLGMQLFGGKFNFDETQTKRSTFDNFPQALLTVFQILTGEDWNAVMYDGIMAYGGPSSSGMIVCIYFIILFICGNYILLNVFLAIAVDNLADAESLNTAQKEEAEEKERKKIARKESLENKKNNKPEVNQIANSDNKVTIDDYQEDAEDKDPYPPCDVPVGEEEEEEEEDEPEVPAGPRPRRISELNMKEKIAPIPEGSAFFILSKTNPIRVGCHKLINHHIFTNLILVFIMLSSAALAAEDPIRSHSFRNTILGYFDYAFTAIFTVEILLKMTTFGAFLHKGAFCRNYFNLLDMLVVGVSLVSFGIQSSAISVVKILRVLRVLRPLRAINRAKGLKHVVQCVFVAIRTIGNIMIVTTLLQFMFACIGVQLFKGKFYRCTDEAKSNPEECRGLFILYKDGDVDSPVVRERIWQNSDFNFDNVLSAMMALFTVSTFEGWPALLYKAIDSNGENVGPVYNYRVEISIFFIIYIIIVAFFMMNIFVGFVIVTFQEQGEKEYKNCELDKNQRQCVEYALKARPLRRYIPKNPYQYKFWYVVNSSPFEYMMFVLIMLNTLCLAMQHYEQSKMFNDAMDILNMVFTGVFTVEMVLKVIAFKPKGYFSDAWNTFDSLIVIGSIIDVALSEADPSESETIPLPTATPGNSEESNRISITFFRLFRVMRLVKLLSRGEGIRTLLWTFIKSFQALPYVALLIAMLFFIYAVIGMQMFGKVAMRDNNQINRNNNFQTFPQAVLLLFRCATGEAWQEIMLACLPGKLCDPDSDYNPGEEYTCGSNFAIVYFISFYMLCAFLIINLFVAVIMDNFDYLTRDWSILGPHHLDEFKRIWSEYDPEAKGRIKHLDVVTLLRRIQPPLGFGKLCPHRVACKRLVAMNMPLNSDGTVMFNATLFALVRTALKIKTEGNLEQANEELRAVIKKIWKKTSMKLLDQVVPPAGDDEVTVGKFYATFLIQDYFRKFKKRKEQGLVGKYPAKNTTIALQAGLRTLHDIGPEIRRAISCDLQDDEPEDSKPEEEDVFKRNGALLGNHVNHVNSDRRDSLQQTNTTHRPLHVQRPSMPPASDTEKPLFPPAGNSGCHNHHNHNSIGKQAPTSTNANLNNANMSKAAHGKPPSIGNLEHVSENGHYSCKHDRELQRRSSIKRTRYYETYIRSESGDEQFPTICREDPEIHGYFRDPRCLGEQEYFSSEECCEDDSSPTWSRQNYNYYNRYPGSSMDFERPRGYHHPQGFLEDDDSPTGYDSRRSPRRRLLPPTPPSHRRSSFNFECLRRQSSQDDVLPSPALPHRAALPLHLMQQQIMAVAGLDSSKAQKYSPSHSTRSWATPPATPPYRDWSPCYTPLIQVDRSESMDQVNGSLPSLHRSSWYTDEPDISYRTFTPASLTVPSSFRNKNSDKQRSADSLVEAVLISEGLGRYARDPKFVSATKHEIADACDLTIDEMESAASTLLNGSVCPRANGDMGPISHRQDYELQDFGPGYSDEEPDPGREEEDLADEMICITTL

B1: human RS1 (wild type) expressed in HEK cells (natural protein)
chain: STEDEGEDPWYQKACKCDCQGGPNALWSAGATSLDCIPECPYHKPLGFESGEVTPDQITCSNPEQYVGWYSSWTANKARLNSQGFGCAWLSKFQDSSQWLQIDLKEIKVISGILTQGRCDIDEWMTKYSVQYRTDERLNWIYYKDQTGNNRVFYGNSDRTSTVQNLLRPPIISRFIRLIPLGWHVRIAIRMELLECVSKCA
  shift of the current-membrane voltage relationship (voltage-dependent activation) of Cav1.3-LTCCs on co-transfection with RS1, HEK cells: -10 mV
